{"source": "the supplement of paper PMC11316812", "key": {"MCF7": {"test_system": "MCF7", "test": "percentage of EdU-negative (G0-arrested) nuclei per well, 72 h; higher = more G0 arrest", "settings": "reference: sequence is the full UniProt precursor, the tested protein was the secreted form or ectodomain"}, "hTERT-HMEC": {"test_system": "hTERT-HMEC", "test": "percentage of EdU-negative (G0-arrested) nuclei per well, 72 h; higher = more G0 arrest", "settings": "reference: sequence is the full UniProt precursor, the tested protein was the secreted form or ectodomain"}, "[1]": {"settings": "protein concentration 0.03125 µM"}, "[2]": {"settings": "protein concentration 0.3125 µM"}, "[3]": {"settings": "protein concentration 0.0225 µM"}, "[4]": {"settings": "protein concentration 0.02175 µM"}, "[5]": {"settings": "protein concentration 0.2175 µM"}, "[6]": {"settings": "protein concentration 0.00875 µM"}, "[7]": {"settings": "protein concentration 0.0875 µM"}, "[8]": {"settings": "protein concentration 0.01925 µM"}, "[9]": {"settings": "protein concentration 0.1925 µM"}}, "note": "± gives the standard deviation of the averaged measurements.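 Note: secreted proteins added to cultured cells, EdU pulse at the end, nuclei found by Hoechst imaging, EdU status from nuclear versus surrounding ring intensity ratio, PBS as neutral control.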", "data": [{"sequence": "MALSFSLLMAVLVLSYKSICSLGCDLPQTHSLGNRRALILLAQMGRISPFSCLKDRHDFGFPQEEFDGNQFQKAQAISVLHEMIQQTFNLFSTKDSSATWEQSLLEKFSTELNQQLNDLEACVIQEVGVEETPLMNVDSILAVKKYFQRITLYLTEKKYSPCAWEVVRAEIMRSFSLSKIFQERLRRKE", "values": [{"measurement": "percentage of EdU-negative", "setting": "MCF7; [1]", "value": "46.7 ± 0.98", "unit": "%"}, {"measurement": "percentage of EdU-negative", "setting": "MCF7; [2]", "value": "47.89 ± 0.27", "unit": "%"}, {"measurement": "percentage of EdU-negative", "setting": "hTERT-HMEC; [1]", "value": "15.2 ± 2.2", "unit": "%"}, {"measurement": "percentage of EdU-negative", "setting": "hTERT-HMEC; [2]", "value": "17.64 ± 0.089", "unit": "%"}]}, {"sequence": "MALSWVLTVLSLLPLLEAQIPLCANLVPVPITNATLDRITGKWFYIASAFRNEEYNKSVQEIQATFFYFTPNKTEDTIFLREYQTRQNQCFYNSSYLNVQRENGTVSRYEGGREHVAHLLFLRDTKTLMFGSYLDDEKNWGLSFYADKPETTKEQLGEFYEALDCLCIPRSDVMYTDWKKDKCEPLEKQHEKERKQEEGES", "values": [{"measurement": "percentage of EdU-negative", "setting": "MCF7; [3]", "value": "25.4 ± 2.9", "unit": "%"}, {"measurement": "percentage of EdU-negative", "setting": "MCF7; protein concentration 0.225 µM", "value": "25.1 ± 3.5", "unit": "%"}, {"measurement": "percentage of EdU-negative", "setting": "hTERT-HMEC; [3]", "value": "4.9 ± 0.092", "unit": "%"}, {"measurement": "percentage of EdU-negative", "setting": "hTERT-HMEC; protein concentration 0.225 µM", "value": "5.06 ± 0.15", "unit": "%"}]}, {"sequence": "MALTAHPSCLLALLVAGLAQGIRGPLRAQDLGPQPLELKEAFKLFQIQFNRSYLSPEEHAHRLDIFAHNLAQAQRLQEEDLGTAEFGVTPFSDLTEEEFGQLYGYRRAAGGVPSMGREIRSEEPEESVPFSCDWRKVASAISPIKDQKNCNCCWAMAAAGNIETLWRISFWDFVDVSVQELLDCGRCGDGCHGGFVWDAFITVLNNSGLASEKDYPFQGKVRAHRCHPKKYQKVAWIQDFIMLQNNEHRIAQYLATYGPITVTINMKPLQLYRKGVIKATPTTCDPQLVDHSVLLVGFGSVKSEEGIWAETVSSQSQPQPPHPTPYWILKNSWGAQWGEKGYFRLHRGSNTCGITKFPLTARVQKPDMKPRVSCPP", "values": [{"measurement": "percentage of EdU-negative", "setting": "MCF7; [3]", "value": "23.2 ± 3.5", "unit": "%"}, {"measurement": "percentage of EdU-negative", "setting": "MCF7; protein concentration 0.225 µM", "value": "32.1 ± 4.7", "unit": "%"}, {"measurement": "percentage of EdU-negative", "setting": "hTERT-HMEC; [3]", "value": "4.63 ± 1.3", "unit": "%"}, {"measurement": "percentage of EdU-negative", "setting": "hTERT-HMEC; protein concentration 0.225 µM", "value": "48.2 ± 4", "unit": "%"}]}, {"sequence": "MALTGYSWLLLSATFLNVGAEISITLEPAQPSEGDNVTLVVHGLSGELLAYSWYAGPTLSVSYLVASYIVSTGDETPGPAHTGREAVRPDGSLDIQGILPRHSGTYILQTFNRQLQTEVGYGHVQVHEILAQPTVLANSTALVERRDTLRLMCSSPSPTAEVRWFFNGGALPVALRLGLSPDGRVLARHGIRREEAGAYQCEVWNPVSVSRSEPINLTVYFGPERVAILQDSTTRTGCTIKVDFNTSLTLWCVSRSCPEPEYVWTFNGQALKNGQDHLNISSMTAAQEGTYTCIAKNTKTLLSGSASVVVKLSAAAVATMIVPVPTKPTEGQDVTLTVQGYPKDLLVYAWYRGPASEPNRLLSQLPSGTWIAGPAHTGREVGFPNCSLLVQKLNLTDTGRYTLKTVTVQGKTETLEVELQVAPLG [Q2WEN9]", "values": [{"measurement": "percentage of EdU-negative", "setting": "MCF7; [4]", "value": "26.4 ± 2", "unit": "%"}, {"measurement": "percentage of EdU-negative", "setting": "MCF7; [5]", "value": "27.5 ± 2.3", "unit": "%"}, {"measurement": "percentage of EdU-negative", "setting": "hTERT-HMEC; [4]", "value": "5.23 ± 0.14", "unit": "%"}, {"measurement": "percentage of EdU-negative", "setting": "hTERT-HMEC; [5]", "value": "7.63 ± 2.6", "unit": "%"}]}, {"sequence": "MALTLFDTDEYRPPVWKSYLYQLQQEAPHPRRITCTCEVENRPKYYGREFHGMISREAADQLLIVAEGSYLIRESQRQPGTYTLALRFGSQTRNFRLYYDGKHFVGEKRFESIHDLVTDGLITLYIETKAAEYIAKMTINPIYEHVGYTTLNREPAYKKHMPVLKETHDERDSTGQDGVSEKRLTSLVRRATLKENEQIPKYEKIHNFKVHTFRGPHWCEYCANFMWGLIAQGVKCADCGLNVHKQCSKMVPNDCKPDLKHVKKVYSCDLTTLVKAHTTKRPMVVDMCIREIESRGLNSEGLYRVSGFSDLIEDVKMAFDRDGEKADISVNMYEDINIITGALKLYFRDLPIPLITYDAYPKFIESAKIMDPDEQLETLHEALKLLPPAHCETLRYLMAHLKRVTLHEKENLMNAENLGIVFGPTLMRSPELDAMAALNDIRYQRLVVELLIKNEDILF [B8ZZ96]", "values": [{"measurement": "percentage of EdU-negative", "setting": "MCF7; [6]", "value": "25.94 ± 0.25", "unit": "%"}, {"measurement": "percentage of EdU-negative", "setting": "MCF7; [7]", "value": "26.7 ± 0.53", "unit": "%"}, {"measurement": "percentage of EdU-negative", "setting": "hTERT-HMEC; [6]", "value": "4.91 ± 0.4", "unit": "%"}, {"measurement": "percentage of EdU-negative", "setting": "hTERT-HMEC; [7]", "value": "6.84 ± 1.4", "unit": "%"}]}, {"sequence": "MALVRALVCCLLTAWHCRSGLGLPVAPAGGRNPPPAIGQFWHVTDLHLDPTYHITDDHTKVCASSKGANASNPGPFGDVLCDSPYQLILSAFDFIKNSGQEASFMIWTGDSPPHVPVPELSTDTVINVITNMTTTIQSLFPNLQVFPALGNHDYWPQDQLPVVTSKVYNAVANLWKPWLDEEAISTLRKGGFYSQKVTTNPNLRIISLNTNLYYGPNIMTLNKTDPANQFEWLESTLNNSQQNKEKVYIIAHVPVGYLPSSQNITAMREYYNEKLIDIFQKYSDVIAGQFYGHTHRDSIMVLSDKKGSPVNSLFVAPAVTPVKSVLEKQTNNPGIRLFQYDPRDYKLLDMLQYYLNLTEANLKGESIWKLEYILTQTYDIEDLQPESLYGLAKQFTILDSKQFIKYYNYFFVSYDSSVTCDKTCKAFQICAIMNLDNISYADCLKQLYIKHNY", "values": [{"measurement": "percentage of EdU-negative", "setting": "MCF7; [8]", "value": "26.4 ± 2.1", "unit": "%"}, {"measurement": "percentage of EdU-negative", "setting": "MCF7; [9]", "value": "28.3 ± 3.7", "unit": "%"}, {"measurement": "percentage of EdU-negative", "setting": "hTERT-HMEC; [8]", "value": "4.69 ± 0.32", "unit": "%"}, {"measurement": "percentage of EdU-negative", "setting": "hTERT-HMEC; [9]", "value": "15.5 ± 1.9", "unit": "%"}]}, {"sequence": "MALWRGSAYAGFLALAVGCVFLLEPELPGSALRSLWSSLCLGPAPAPPGPVSPEGRLAAAWDALIVRPVRRWRRVAVGVNACVDVVLSGVKLLQALGLSPGNGKDHSILHSRNDLEEAFIHFMGKGAAAERFFSDKETFHDIAQVASEFPGAQHYVGGNAALIGQKFAANSDLKVLLCGPVGPKLHELLDDNVFVPPESLQEVDEFHLILEYQAGEEWGQLKAPHANRFIFSHDLSNGAMNMLEVFVSSLEEFQPDLVVLSGLHMMEGQSKELQRKRLLEVVTSISDIPTGIPVHLELASMTNRELMSSIVHQQVFPAVTSLGLNEQELLFLTQSASGPHSSLSSWNGVPDVGMVSDILFWILKEHGRSKSRASDLTRIHFHTLVYHILATVDGHWANQLAAVAAGARVAGTQACATETIDTSRVSLRAPQEFMTSHSEAGSRIVLNPNKPVVEWHREGISFHFTPVLVCKDPIRTVGLGDAISAEGLFYSEVHPHY [Q9BRR6]", "values": [{"measurement": "percentage of EdU-negative", "setting": "MCF7; [3]", "value": "24.8 ± 1", "unit": "%"}, {"measurement": "percentage of EdU-negative", "setting": "MCF7; protein concentration 0.225 µM", "value": "24 ± 2.1", "unit": "%"}, {"measurement": "percentage of EdU-negative", "setting": "hTERT-HMEC; [3]", "value": "4.76 ± 0.58", "unit": "%"}, {"measurement": "percentage of EdU-negative", "setting": "hTERT-HMEC; protein concentration 0.225 µM", "value": "5.82 ± 0.78", "unit": "%"}]}]}
